For the experiment, the target named is T1, human fibrinogen (human, UniProt P02671-2 20-644; P02675 31-491; P02679-2 27-437).
T1 sequence (looked up) 1: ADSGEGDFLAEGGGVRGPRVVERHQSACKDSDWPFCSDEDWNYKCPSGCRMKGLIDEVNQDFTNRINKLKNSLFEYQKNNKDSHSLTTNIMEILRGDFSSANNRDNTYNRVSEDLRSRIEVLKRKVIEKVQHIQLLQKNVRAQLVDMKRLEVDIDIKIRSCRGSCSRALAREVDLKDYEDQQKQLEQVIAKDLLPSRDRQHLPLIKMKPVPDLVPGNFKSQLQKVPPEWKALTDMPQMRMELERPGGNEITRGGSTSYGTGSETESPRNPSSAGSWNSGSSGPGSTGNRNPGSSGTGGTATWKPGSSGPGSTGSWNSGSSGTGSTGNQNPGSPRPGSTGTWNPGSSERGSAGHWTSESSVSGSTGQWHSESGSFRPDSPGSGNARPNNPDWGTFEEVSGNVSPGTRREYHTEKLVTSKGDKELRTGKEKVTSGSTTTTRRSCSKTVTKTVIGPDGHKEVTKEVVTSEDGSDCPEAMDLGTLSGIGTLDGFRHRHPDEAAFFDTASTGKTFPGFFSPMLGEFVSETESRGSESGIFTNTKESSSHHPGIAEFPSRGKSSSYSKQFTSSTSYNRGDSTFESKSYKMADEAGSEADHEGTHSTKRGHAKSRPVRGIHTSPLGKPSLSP
T1 sequence (looked up) 2: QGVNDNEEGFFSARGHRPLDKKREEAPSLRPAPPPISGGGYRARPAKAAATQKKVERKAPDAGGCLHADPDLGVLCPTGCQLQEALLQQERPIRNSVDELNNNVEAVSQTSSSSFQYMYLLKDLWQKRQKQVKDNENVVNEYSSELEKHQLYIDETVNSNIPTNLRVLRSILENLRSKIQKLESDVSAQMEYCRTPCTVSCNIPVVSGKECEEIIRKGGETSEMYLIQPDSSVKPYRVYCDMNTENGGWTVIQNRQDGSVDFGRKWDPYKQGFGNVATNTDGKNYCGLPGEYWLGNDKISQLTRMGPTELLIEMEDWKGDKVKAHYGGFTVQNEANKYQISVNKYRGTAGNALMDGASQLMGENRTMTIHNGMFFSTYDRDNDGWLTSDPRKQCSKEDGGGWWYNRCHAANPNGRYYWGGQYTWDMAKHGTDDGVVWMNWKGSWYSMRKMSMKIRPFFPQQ
T1 sequence (looked up) 3: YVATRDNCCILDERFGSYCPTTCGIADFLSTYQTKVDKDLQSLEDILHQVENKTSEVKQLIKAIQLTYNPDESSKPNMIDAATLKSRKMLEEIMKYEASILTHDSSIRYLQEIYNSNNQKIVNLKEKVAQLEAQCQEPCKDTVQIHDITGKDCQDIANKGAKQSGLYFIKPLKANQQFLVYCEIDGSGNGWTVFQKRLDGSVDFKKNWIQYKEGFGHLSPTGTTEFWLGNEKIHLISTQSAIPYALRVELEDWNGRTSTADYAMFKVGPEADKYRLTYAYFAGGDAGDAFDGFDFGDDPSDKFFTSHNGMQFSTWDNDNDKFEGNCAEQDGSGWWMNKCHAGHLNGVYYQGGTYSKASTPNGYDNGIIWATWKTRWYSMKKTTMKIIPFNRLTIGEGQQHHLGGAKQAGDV
In words: SPR. Background: Surface plasmon resonance follows binding to a sensor surface in real time, without labels.

The term Kd denotes a measure of binding affinity in units of concentration. Low readings indicate a tighter complex, high ones a looser complex.

B1: recombinant von Willebrand factor (VWF) A2 domain polypeptide, A2_(1481-1668) (domain or fragment)
chain: GLLGVSTLGPKRNSMVLDVAFVLEGSDKIGEADFNRSKEFMEEVIQRMDVGQDSIHVTVLQYSYMVTVEYPFSEAQSKGDILQRVREIRYQGGNRTNTGLALRYLSDHSFLVSQGDREQAPNLVYMVTGNPASDEIKRLPGDIQVVPIGVGPNANVQELERIGWPNAPILIQDFETLPREAPDLVLQR
Regarding B1, binding was characterised by a dissociation constant (Kd) of 125 ± 30 nM.

The record behind these values is paper PMC5270629 (Thrombosis research, 2015).
